Experiment: soluble on expression in E. coli; label from the status in PepcDB or PDB records

| Sequence | soluble on expression in E. coli |
| --- | --- |
| SPSDVLVIENKHLTKEWPSGGQMMVNNLTAKYTSDGRAVLQDLSFSVNAGQRVGLLGRTGAGKSTLLSALLRLLSTEGEIQIDGISWNSVSLQKWRKAFGVIPQKVFVFSGTFRKNLDPYEQWSDEEIWKVTEEVGLKSMIEQFPDKLNFVLVDGGYILSNGHKQLMCLARSILSKAKILLLDEPTAHLDPVTFQIIRKTLKHTFSNCTVILSEHRVEALLECQQFLVIEGCSVKQFDALQKLLTEASLFKQVFGHLDRAKLFTAHRRNSSKRKTRPKISALQEEAEEDLQETRL | soluble |
| KIIVKHVTVIGGGLMGAGIAQVAAATGHTVVLVDQTEDILAKSKKGIEESLRKVAKKKFAENPKAGDEFVAKTLSTIATSTDAASVVHSTDLVVEAIVENLKVKNELFKRLDKRAAEHTIFASNTSSLQITSIANATTRQDRFAGLHFFNPVPVMKLVEVIKTPMTSQKTFESLVDFSKALGKHPVSCKDTPGFIVNRLLVPYLMEAIRLYERGDASKEDIDTAMKLGAGYPMGPFELLDYVGLDTTKFIVDGWHEMDAENPLHQPSPSLNKLVAENKFGKKTGEGFYKYKAA | soluble |
| MQNNSYGYAVSVRVGGKEHRHWERYDIDSDFLIPADSFDFVIGRLGPEAAIPDLSGESCEVVIDGQIVMTGIIGSQRHGKSKGSRELSLSGRDLAGFLVDCSAPQLNVKGMTVLDAAKKLAAPWPQIKAVVLKAENNPALGKIDIEPGETVWQALTHIANSVGLHPWLEPDGTLVVGGADYSSPPVATLCWSRTDSRCNIERMDIEWDTDNRFSEVTFLAQSHGRSGDSAKHDLKWVYKDPTMTLHRPKTVVVSDADNLAALQKQAKKQLADWRLEGFTLTITVGGHKTRDGVLWQPGLRVHVIDDEHGIDAVFFLMGRRFMLSRMDGTQTELRLKEDGIWTPDAYPKKAEAARKRKGKRKGVSHKGKKGGKKQAETAVFE | soluble |
| MKQTVLKNNLQNLLESAENILLLQGPVGDFFLRLADWLTANGKTVHKFNFNAGDDYFYPPTQAHTVVFNDNYDAFPEFLQEYITQHHIQAVVCFGDTRPYHVIAKRIANENQASFWAFEEGYFRPYYITLEKDGVNAFSPLPRRADFFLEQFPKLAQQEYKAPTPVHGGFTPMAKNAIRYYIELFRNPRKYPDYIHHRAPNAGHYLKPWSLSILKRLNYYIEDIQIAKRVEAGKYGKFFIVPLQVFNDSQVRIHCDFPSVRSFLLHVLSSFAEHAPADTNIIIKHHPMDRGFIDYWRDIKRFIKEHPELKGRVIYVHDVPLPVFLRHGLGMVTINSTSGLSGLIHNMPVKVLGRAYYDIPGITDQNTLAEFWNHPTPPDKELFHAYRMYHLNVTQINGNFYSQVFFPNKKTSNSSTPVI | not soluble |
| APTPAQMPSPTSFSDSIKQLAAETLPKYMQQLNSLDAEMLQKNHDQFATGSGPLRGSITQCQGLMQFCGGELQAEASAILNTPVCGIPFSQWGTIGGAASAYVASGVDLTQAANEIKGLAQQMQKLLSLMHHHHHH | soluble |
| MKRKRIDIITLGCSKNLVDSEQLMRQLEEAGYSVTHDTENPEGEIAVINTCGFIGDAKEESINMILEFAERKEEGDLKKLFVMGCLSERYLQELAIEIPQVDKFYGKFNWKELLQDLGKTYHEELYIERTLTTPKHYAYLKISEGCDRKCSYCAIPIITGRHISKSMEEILDEVRYLVSQGVKEFQVIAQELTYYGVDLYKKQMLPELIERISEIPGVEWIRLHYAYPAHFPTDLFRVMRERDNVCKYMDIALQHISDNMLKLMRRQVSKEDTYKLIEQFRKEVPGIHLRTTLMVGHPGETEEDFEELKEFVRKARFDRMGAFAYSEEEGTYAAQQYEDSIPQEVKQARLDELMDIQQGISAELSAAKIGQQMKVIIDRIEGDYYIGRTEFDSPEVDPEVLISVSREELEVGQFYQVEVTDADDFDLYAKILNKYELEHHHHHH | soluble |
| MGHHHHHHSHMKNMEQQHIEVVGKLGSTYGIRGWLRIYSSTEQAESIFDYQPWFLKIKGEWQSIELENWRYHNHEIIVKLKGVDDREAAQILANVEIGVDLSVFPELEEGDYYWHDLIGCTVVNLEGYTMGTVTEMMETGSNDVLVVKANTKDAFGKQERLIPFLYEQVVKRVDLTTKTIEVDWDAGF | soluble |
| MGSDKIHHHHHHMAVSIEGSPPCSYFMCLQLYSQYIRYNHFMRLNDEQQMNEKHSDHADKTKMPSSETLKQVCQPEERVLGRADDGSVMEFMLQTEHGNTYLCRFPPGFISHAAIQLCTEEIWYFIQGEGVFWIKHEGIERQVPFNAGTALHAPCGGAMQFRNNGHLEAVAHVVTMPPWPGSDGAKLTKGPWESV | not soluble |
| MGSDKIHHHHHHMKMEELFKKHKIVAVLRANSVEEAKEKALAVFEGGVHLIEITFTVPDADTVIKELSFLKEKGAIIGAGTVTSVEQCRKAVESGAEFIVSPHLDEEISQFCKEKGVFYMPGVMTPTELVKAMKLGHTILKLFPGEVVGPQFVKAMKGPFPNVKFVPTGGVNLDNVCEWFKAGVLAVGVGSALVKGTPDEVREKAKAFVEKIRGCTE | soluble |
| SNAQDVPVTQVMTPRPVVFRVDATMTINEFLDKHKDTPFSRPLVYSEQKDNIIGFVHRLELFKMQQSGSGQKQLGAVMRPIQVVLNNTALPKVFDQMMTHRLQLALVVDEYGTVLGLVTLEDIFEHLVGE | soluble |
| MDNRNHSANVLIHLHMPKTGGTTLKKIIKRNYDSRKSVDVYEEHHKLPGIFKGLSKQNIECVQGHLPFGVHEYFNRPTTYITMLRDPVDRVISEYYFIRNIEWHNLHESVMKMSLEEYQGLPKNRNLQTRYILGGQLTSVTEVNRAKNILKNHFAVVGLTEKFDASLFLMKEMFNWKQVAYQKYNVTKKRRSKEEISPKLLEKIAKNNEADLELYAFAKELLAKRIRALDPLSAYRLKRFERKHQQGFHGKRDRMAGDPLEHHHHHH | soluble |
| LALQAKQYGDFDRYVLALSWQTGFCQSQHDRNRNERDECRLQTETTNKADFLTVHGLWPGLPKSVAARGVDERRWMRFGCATRPIPNLPEARASRMCSSPETGLSLETAAKLSEVMPGAGGRSCLERYEYAKHGACFGFDPDAYFGTMVRLNQEIKESEAGKFLADNYGKTVSRRDFDAAFAKSWGKENVKAVKLTCQGNPAYLTEIQISIKADAINAPLSANSFLPQPHPGNCGKTFVIDKAGY | soluble |
| MSLARIKDVAELAGVNRSTVSRIINGEGKFREETRKKVEQAMAQLNYRPSAIARSLATSSSNMVGLLVTYYTGGFFGEMMEQVQTELDIHKKFLITAQGHHSAEGEKEAIQRFNDLRCDGYVLHSRYLSDDDLRELAKLPTPFVLLDRYVEGIEERCITFNHHHASRIAVEHLIAGGHKNIACITGPSLRHNSLLRKLGYVDAMKTAGIDIDESWCEEGNYGRQSGYDAMASILKRHPEVTAVFSCSEEMTVGAMQYLHEHKISVPEQISLTSFDSVDLCESLYPTVSAVHFPISDMARAAVQTLMGLVKKQEHIEKPVFEAKLKLRHADREGHHHHHH | soluble |
| MSLKPSDFVKYLQRMIALTDTGLTFTKDPFDRERYEDLRSLLSEMLNQVSDLDAEEVAEVLKPTSAYATPLMDVRAWIVEDEKICLVRRQGEDSWALPGGFGEVGYSPTENILKEIEEETGFKAKVERLLAVFDTNRFQLQSKQYAKFVFECKLLDGQFQENQEIAALQFFTIDQLPNLSEKRITKEQIEILWQVYQGQREQYLDEGGSHHHHHH | soluble |
| GSHMGPVEILPFLYLGSAYHASKCEFLANLHITALLNVSRRTSEACMTHLHYKWIPVEDSHTADISSHFQEAIDFIDCVREKGGKVLVHSEAGISRSPTICMAYLMKTKQFRLKEAFDYIKQRRSMVSPNFGFMGQLLQYESEILPSTPNPQPPSCQGEAAGSSLIGHLQTLSPDMQGAYCTFPASVLAPVPTHSTVSELSRSPVATATSC | soluble |
| MGSDKIHHHHHHMNWESTPVLMLTPFHHMQRGNTLTTLRLQTALRQRGFTVDLLSLEEKGWRDSLREYLINGKYSLVHGFNARYFGGVLTEFPELRNLPLILTTTGSDLNYDLKNSGRDLVLAAFAAAEKIIVFHDYFQKLIGDAYPEYCSKLSTIPQGVWLEESPPIKREMIGLAADNIVFALPSGLRPVKDIELAIDGLQRVYKDFPELRLLIIGPVIDRDYGQKIKQRVSELNWVFYLGEVLHSDMGNYLSLADVILNTSQAEGQPQGLLEGMSQNKPAILTAVPGNLDIIEEGRQGYYVRNQEELAVAARKMLSSAESRQRMGWEAGKLVKEKFSLAREIQSYAELYRQVLSP | not soluble |
| MAHHHHHHMSATPKQPSTATTSISSDEKWDHSLETLIRKSTIGFASGILPGLLLARSPAARSAIIALCTGVGSGIAYGEARYLFDHDIMFDKRHLIQVQVVGGSSSQQSGAQKSME | not soluble |
